Laboratory results taken from patent US20260209365A1, “ANTI-COMMON GAMMA CHAIN PROTEINS AND COMPOSITIONS OF MATTER” (SINOMAB BIOSCIENCE LIMITED, priority 2023, published 2026).

Key:
Format in all cases: cell-based, human
[1] = system: granzyme and IFNγ secretion; assay: Secretion of granzymes and IFNγ from PBMC culture, ELISA
Experimental: Activation of T and NK cells in the PBMC culture could be studied by granzyme and IFNγ secretion [Carlin et al., Blood., 2005; 106 (12): 3874-9; Grossman et al., Blood., 2004; 104 (9): 2840-8; Keppel et al., J Immunol., 2015; 194 (4): 1954-1962; Tamang et al., Cytokine., 2006; 36 (3-4): 148-59]. Similar results are obtained in-house that IL-2 and IL-15 but not IL-21 could trigger secretion of granzyme A and IFNγ in PBMC culture (FIG. 15A-B).
Antibodies or ritlecitinib were added into the PBMC culture to investigate their inhibitory effects in the presence of IL-2 or IL-15 treatment.
Releases of cytolytic agents from PBMC culture were further evaluated by ELISA assays.

[2] = system: granzyme A secretion; assay: Granzyme A secretion from KHYG-1, ELISA; details: 3 days, 33 nM
Experimental: To test the efficacies of anti-γc antibodies, proliferation and granzyme A secretion were chosen as the experimental models. In brief, KHYG-1 was seeded into either 48- or 96-well plates and starved in non-IL-2 supplemented medium overnight. After replenishment with new medium, KHYG-1 was pre-incubated with anti-γc antibodies or ritlecitinib for an hour before the administration of γc cytokines for 3 days. Proliferation rate was determined by the addition of WST-8 reagent while the secretion of granzyme A was estimated by ELISA measurement.

[3] = system: cleaved caspase 3 and μ-H2AX; assay: Western blot of cleaved caspase 3 and μ-H2AX in Ramos; details: IL-4 10 ng/ml; 33 nM
Experimental: Levels of cleaved caspase 3 (apoptotic protein) and μ-H2AX (DNA damage marker) were investigated by western blot in the Ramos B cells treated in the same paradigm. In brief, total proteins were extracted from the Ramos cells in RIPA lysis buffer supplemented with Halt™ Protease and Phosphatase Inhibitor Cocktail. Proteins were denatured and separated through electrophoresis and blotted on the nitrocellulose membrane. The membrane was blocked with 5% nonfat milk diluted in TBST, then incubated with primary antibodies diluted in 5% BSA/TBS T at 4° C. overnight in a rotating wheel. Next day, membrane was washed with PBST and incubated with secondary antibodies diluted in 5% milk/TBST for an hour at RT. Intensities of protein bands were determined using ECL substrate kit in the ChemiDoc Imaging System.

[4] = system: CD23 expression; assay: qRT-PCR of CD23 expression in Ramos; details: IL-4 10 ng/ml, 24 hours, 33 nM
Experimental: Genes related to the B cell functions were investigated by quantitative real-time PCR (qRT-PCR). In brief, Ramos cells were starved in serum-free RPMI1640 medium for 24 hours and then treated with 10 ng/ml IL-4 or IL-21 for 24 hours. Total RNA was extracted by RNAzol following manufacturer's protocol. Reverse transcription was performed in 500 ng of total RNA using PrimeScript RT reagent kit and the gene expression was analyzed by quantitative real-time PCR using TB Green Premix Ex Taq in Lightcycler® 480 Real-Time PCR System. Housekeeping gene GAPDH was used for normalization.

[5] = system: IL-9 induced STAT3 phosphorylation; assay: Inhibition of IL-9 induced STAT3 phosphorylation in Jurkat T cell line, flow cytometry; details: ScFv 10 μg/ml
Description: (§1) Cells were harvested and stained with FITC conjugated anti-pSTAT6, PE conjugated anti-pSTAT3 or APC con jugated anti-pSTAT5 antibodies for flow cytometry analyses. In some embodiments, the purified ScFv could block the IL-4 induced STAT6 phosphorylation in cell culture (e.g., Ramos). In some embodiments, the purified ScFv could block the IL-7 induced STAT5 phosphorylation in cell culture (e.g., HPB-ALL). In some embodiments, the purified ScFv could block the IL-9 induced STAT3 phosphorylation in cell culture (e.g., Jurkat). In some embodiments, the purified ScFv could block the IL-15 induced STAT5 phosphorylation in cell culture (e.g., KHYG-1). In some embodiments, the purified ScFv could block the IL-21 induced STAT3 phosphorylation in cell culture (e.g., Ramos).
(§2) Flow cytometry was employed to measure the percentage of p-STAT expressing cells after cytokine induction and anti-γc ScFv treatment. KHYG-1 (Creative Bioarray, Shirley, NY 11967, USA) was starved in IL-2 free RPMI1640 (ATCC modification, ThermoFisher Scientific, Waltham, MA, USA) with 10% FBS (ThermoFisher Scientific) for 2 days. Ramos, HPB-ALL and Jurkat cell lines were used directly without starvation. Cells were replenished with fresh RPMI1640 medium and pretreated with anti-γc ScFv (10 μg/mL) for an hour. After treatment with TL-4 (10 ng/ml, Sino Biological), IL-7 (50 ng/ml, Sino Biological), IL-9 (50 ng/ml, Sino Biological), IL-15 (10 ng/ml, Sino Biological) or IL-21 (10 ng/ml, Sino Biological) for 15 min, cells were fixed in 4% paraformaldehyde (PFA, Sigma, St. Louis, Missouri, USA) for 10 min, permeabilized in 0.1% Triton X-100 (Sigma) for 10 min and then stained with FITC conjugated anti-pSTAT6, PE conjugated anti-pSTAT3 or APC con jugated anti-pSTAT5 (all diluted in 1:100, Biolegend, San Diego, California, USA) for 30 min at 37° C. Percentage of p-STAT expressing cells was measured by BD FACSLyric™ Clinical Flow Cytometry System (BD Biosciences, New Jersey, USA). Data were analyzed by Flowjo (version 10, BD).
(§3) Different cell lines were used for testing. KHYG-1 refers to the NK cell line harvested from the peripheral blood of a person with aggressive NK cell leukemia. This cell line could respond to IL-2 and IL-15 stimulation in-vitro [Yamasaki et al., Leuk Res., […]; 28 (10): 1023-31]. Ramos is a human Burkitts Lymphoma cell line (CRL-1596™) and could be used as a model for IL-4 and IL-21 studies [Hui et al., Front Immunol., 2022; 13: 919854]. Jurkat is a human T lymphoblast cell line (Clone E6-1, TIB-152™) and is widely used in the T cell studies of IL-9 function. HPB-ALL is a T cell leukemia model established from the peripheral blood of a child with ALL and thymoma at diagnosis in 1973 and could be used for IL-7 functional studies.

[6] = system: IL-4 induced STAT6 phosphorylation; assay: Inhibition of IL-4 induced STAT phosphorylation in Ramos B cell line, flow cytometry; details: ScFv 10 μg/ml
Description: as §1, §2, §3

[7] = system: IL-7 induced STAT5 phosphorylation; assay: Inhibition of IL-7 induced STAT5 phosphorylation in HPB-ALL T cell line, flow cytometry; details: ScFv 10 μg/ml
Description: as §1, §2, §3

[8] = system: STAT phosphorylation induced by 6 γc cytokines; assay: Flow cytometry of p-STAT with full-length anti-γc antibodies in multiple cell lines; details: IL-2, IL-15 in KHYG-1; IL-4, IL-21 in Ramos; IL-7 in HPB-ALL; IL-9 in Jurkat; cytokines 10 ng/ml; 33 nM (5 μg/ml)
Experimental: Flow cytometry was employed to measure the percentage of p-STAT expressing cells after cytokine induction and anti-γc antibody treatment as previously described. IL-2 and IL-15 were tested in KHYG-1 NK cell line; IL-4 and IL-21 were tested in Ramos B cell line; IL-7 was tested in HPB-ALL T cell line; and IL-9 was tested in Jurkat T cell line.

[9] = system: IL-21 induced STAT3 phosphorylation; assay: Inhibition of IL-21 induced STAT phosphorylation in Ramos B cell line, flow cytometry; details: ScFv 10 μg/ml
Description: as §1, §2, §3

[10] = system: IL-15 induced STAT5 phosphorylation; assay: Inhibition of IL-15 induced STAT phosphorylation in KHYG-1 NK cell line, flow cytometry; details: ScFv 10 μg/ml
Description: as §1, §2, §3

[11] = system: Ramos B cells; assay: WST-8 proliferation assay, IL-4/IL-21 rescue of anti-IgM induced cell death; details: chimeric antibodies; 33 nM; IL-4/IL-21 10 ng/ml; 48 hours
Experimental: The effects of anti-γc antibodies in blocking IL-4 and IL-21 rescues of Ramos cell death after anti-IgM induced hyperactivation were investigated by WST-8 proliferation assay. In brief, Ramos cells (50000 cells in 100 l) were seeded into 96-well plate and stabilized at 37° C. for an hour. Cells were pretreated in anti-γc antibodies or ritlecitinib for an hour, followed by incubation of IL-4 (10 ng/ml) or IL-21 (10 ng/ml) and anti-IgM (2 ug/ml, #109-006-129, Jackson ImmunoResearch). Aft er 48 hours, 10 μl WST-8 reagent (ab228554, Abcam) was added to each well and incubated for 4 hours.
WST-8 could be reduced by cellular dehydrogenases to an orange formazan product, which the amount of formazan produced is directly proportional to the number of living Ramos cells. Optical density (OD) of each well was measured by absorbance at 450 nm using Varioskan LUX Multimode Microplate Reader (ThermoFisher Scientific).

Molecule	suppression of IL-2 and IL-15 induced secretion of granzyme A and IFNγ ([1]; IL-2, IL-15 20 ng/ml, three days, 33 nM)	suppression of granzyme B secretion ([1]; IL-2 or IL-15, 33 nM, humanized antibodies)	suppression of IL-2, IL-15 and IL-21 induced granzyme A secretion [2]	block of IL-4 protective effects, μ-H2AX re-induced [3]	suppression of IL-4 induced CD23 expression [4]	p-STAT3 inhibition (%) [5] [%]	p-STAT6 inhibition (%) [6] [%]	p-STAT5 inhibition (%) [7] [%]	block of STAT phosphorylation [8]	p-STAT3 inhibition (%) [9] [%]	p-STAT5 inhibition (%) [10] [%]	block of IL-4 and IL-21 rescue of anti-IgM induced cell death (WST-8) [11]
C=CC(=O)N1C[C@H](Nc2ncnc3[nH]ccc23)CC[C@@H]1C [ritlecitinib]	significantly reduced	superior suppression to granzyme B secretion	significantly suppress IL-2, IL-15 and IL-21 induced granzyme A secretion	could block IL-4 protective effects	significantly suppress IL-4 induced CD23 expression	–	–	–	–	–	–	–
SM-05F: anti-γc antibody, full-length chimeric; CDR SEQ ID NO: 84, 86, 88, 92, 94, 96 (antibody, V domains shown) VH: EVQLQQSGPELVKPGASVKIFCKTSGYTFTEYTMHWVKQSHGESLEWIGGIDPNTGGVTYNQKFKGKATLTADKSSSTAYMELRSLTSEDSAVYYCARRRRYYGYALDYWGQGTSVTVSS VL: DVLMTQTPLSLPVSLGDQASISCRSSQSIVHNNGNTYLEWYLQKPGQSPKLLIYKVSNRFFGVPDRFSGSGSGTYFTLKISRVEAEDLGVYYCFQGSHVPWTFGGGTKLEIKR	–	–	–	–	–	92.36	45.99	99.42	barely demonstrated strong inhibitory effects	78.97	43.73	could block the effects of IL-4 and IL-21
